# Literature values, collected in patent US20250099434A1, “METHODS OF TREATING AMYLOID RELATED BRAIN DISORDERS USING NOVEL COMPOUNDS AND ANTIBODIES” (T3D Therapeutics, Inc., priority 2022, published 2025).
# B1: Gantenerumab: fully human IgG1 antibody binding a conformational epitope on Aβ fibrils (antibody, chains of the INN, looked up, V domains shown)
# VH: QVELVESGGGLVQPGGSLRLSCAASGFTFSSYAMSWVRQAPGKGLEWVSAINASGTRTYYADSVKGRFTISRDNSKNTLYLQMNSLRAEDTAVYYCARGKGNTHKPYGYVRYFDVWGQGTLVTVSS
# VL: DIVLTQSPATLSLSPGERATLSCRASQSVSSSYLAWYQQKPGQAPRLLIYGASSRATGVPARFSGSGSGTDFTLTISSLEPEDFATYYCLQIYNMPITFGQGTKVEIK
# How the values were obtained:
# [1] = human, in vivo; cited from earlier work
# [2] = EXPEDITION-3; cited from earlier work
# brain amyloid = settings: cited from earlier work
# Aβ fibrils = settings: cited from earlier work
molecule,measurement,setting,value
Crenezumab: humanized antibody with an IgG4 backbone recognizing multiple forms of aggregated Aβ,ARIA incidence,[1],low
solanezumab: humanized monoclonal IgG1 antibody directed against the mid-domain of the Aβ peptide,"incidence of vasogenic edema (ARIA-E), patients treated",[2],approximately 0.1%
B1,"lowering of brain amyloid, average, florbetapir PET",brain amyloid; dosed as high as 1200 mg subcutaneously,59 centiloid
same,participants who developed ARIA-E,brain amyloid; extension studies,one-third
same,patients with ARIA,brain amyloid; highest dose,one third
same,affinity to a conformational epitope on Aβ fibrils,Aβ fibrils,sub-nanomolar
